Laboratory results from patent US20200123233A1 (published 2020).

Experiments:
[1] = target: authentic influenza antigen of A/PR/8/34 (ATCC VR-1469), H1N1 (influenza A virus A/PR/8/34 (H1N1), UniProt P03452 18-565); experiment: ELISA on coated authentic influenza antigen
[2] = target: FTM-NN protein (membrane anchorless form of the Long fusion protein, 70 kDa) (human respiratory syncytial virus, …, UniProt P12568 26-524); experiment: binding ELISA, periplasmic extract on immobilised antigen
[3] = target: T1, FTM-NN (membrane anchorless form of the Long fusion protein, 70 kDa) (human respiratory syncytial virus, …, UniProt P12568 26-524); experiment: SPR (Biacore), Ftm-NN protein immobilized on chip, Nanobody as analyte
T1 construct: domain: membrane anchorless form of the fusion protein

B1: IV133 (VHH)
VHH: QVQLQQSGGGLVQPGGSLRLSCAASSSGFSFNPMGWYRQAPGKQRELVATMTSGGTTNYADSVKGRFTISRDNAKTTVYLQMNSLKPEDTAVYYCNARGPRRATTGWITDDYWGQGTQVTVSS
notes: yeast-produced
B1: no binding (tested: 10 µg/ml) [1].

B2: IV156 (VHH)
VHH: QVQLQQSGGGLVQPGGSLRLSCAASRSGFSFNPMGWYRQAPGKQRELVATITSGGTTNYADSVKGRFTISTDNAKTTVFLQMNSLKPEDTAVYYCNGRGPRRGTAGWFTDDYWGQGTQVTVSS
notes: yeast-produced
B2: no binding (tested: 10 µg/ml) [1].

B3: PMP7B2 (VHH)
VHH: EVQLVESGGGLVQAGDSLRLSCAASGRTFSSYAMGWFRQAPGKEREFVAAISWSDGSTYYADSVKGRFTISRDNAKNTVYLQMNSLKPEDTAVYYCAADLTSTNPGSYIYIWAYDYWGQGTQVTVSS
For B3, the “Binding RSV-A, Fold blanc” value [2] was 4.7 fold over blank.

B4: PMP1A6 (VHH)
VHH: EVQLVESGGGLVQAGGSLRLSCAASGRTFSSYAMGWFRQAPGKEREFVAAIWWSGGSTYYADSVKGRFTMSRDNAKNTVYLEMNNLKPEDTAVYYCAADTDSSNSGSYLYTWAYDYWGQGTQVTVSS
With B4 the “Binding RSV-A, Fold blanc” value [2] was 4.2 fold over blank.

B5: PMP1G8 (VHH)
VHH: EVQLVESGGGSVQAGGSLRLSCAASGGSFNRFGMGWFRRAPGKERDFVAAINLSGDTTYYVDSVQGRFTISRDNANNIMYLQMNLLKPEDTADYYCAADPDPITAWKQSGAGMDYWGKGTQVTVSS
For B5, the “Binding RSV-A, Fold blanc” value [2] was 3.7 fold over blank.

B6: PMP1E5 (VHH)
VHH: EVQLVESGGGLVQAGGSLRLSCEASGRTFSPIAMGWFRQAPGKEREFVAVVTRWSGARTVYADSVKGRFTISRDNAENTVYLQMNSLKPEDTAVYTCAADSTNRNSGAIYYTWAYDYWGQGTQVTVSS
For B6, the “Binding RSV-A, Fold blanc” value [2] was 3.4 fold over blank.

B7: PMP20B2 (VHH)
VHH: EVQLVESGGGLVQAGGSLRLSCEASGRTFSSYDMGWFRQAPGKEREFVAAVTRWSGARGVYADSVKGRFTISRDNAENTVHLQMNSLKPEDTAVYTCAADSTNRNSGAVYYTWAYDYWGQGTQVTVSS
For B7, the “Binding RSV-A, Fold blanc” value [2] was 3 fold over blank.

B8: PMP1G3 (VHH)
VHH: EVQLVESGGGLVQAGGSLRLSCEASGRTYSRYGMGWFRQAPGKEREFVAAVSRLSGPRTVYADSVKGRFTISRDNAENTVYLQMNSLKPEDTAVYTCAAELTNRNSGAYYYAWAYDYWGQGTQVTVSS
B8 was tested, and the “Binding RSV-A, Fold blanc” value [2] was 3.4 fold over blank.

B9: IV131 (VHH)
VHH: QVQLQQSGGGLVQAGGSLRLSCAASGSGFSFNPMGWYRQAPGKQRELVASITSGGTTNYVDSVKGRFTISRGNAKNTVYLQMNSLKPEDTAVYYCAAEGPRRRGSTWYTDNYWGQGTQVTVSS
notes: yeast-produced
B9: no binding (tested: 10 µg/ml) [1].

B10: PMP20C1 (VHH)
VHH: EVQLVESGGGLVQAGGSLRLSCAASGRTFSSFAMGWFRQAPGKEREFVAAISWSGGSTYYADSVKGRFTISGDNAKNTMYLQMNSLKPEDTAVYYCAADSEILNSGAYYYPWAYVYWGQGTQVTVSS
For B10, the “Binding RSV-A, Fold blanc” value [2] was 2.7 fold over blank.

B11: PMP19C4 (VHH)
VHH: EVQLVESGGGLVQAGGSLRLSCAASGRSFSNYVLGWFRQAPGKEREFVAAISFRGDSAIGAPSVEGRFTISRDNAKNTGYLQMNSLVPDDTAVYYCGAGTPLNPGAYIYDWSYDYWGRGTQVTVSS
In the case of B11, the “Binding RSV-A, Fold blanc” value [2] is reported as 2.5 fold over blank.

B12: NC41v17 (VHH)
VHH: EVQLLESGGGLVQPGGSLRLSCAASGGSLSNYVLGWFRQAPGKGREFVAAINWRGDITIGPPNVEGRFTISRDNSKNTLYLQMNSLRPEDTAVYYCGAGTPLNPGAYIYDWSYDYWGQGTLVTVSS
In the case of B12, the Kd [3] is reported as 3.2 nM, the koff [3] is reported as 0.0059 s⁻¹ and the kon [3] is reported as 1.9e+06 M⁻¹ s⁻¹.
